This series in a line: soluble on expression in E. coli; label from the status in PepcDB or PDB records.
Regarding “MGSDKIHHHHHHADWKVGIQTWTFHNLTLMETLDKTQQLGMGYAEAFFFQELGAPFPKETYLNYDLSDDNCALLRHEFKIRGIKPIAFGVASYGTNEEWDKFFAFAHKIGAHIVTVEPELNQLDYIESLAKKYDMEVAIHNHPSPCIYASAEVVEKALKGRSPLMGVCADIGHWKRVGEDPLKNLQKLSGRIKVAHLKDLTDKMEDATWGTGILPVKAFVNELKRQHFNGLISIEYDDFKSDIQEIRNSLEFLQKCSK”, the “soluble on expression in E. coli” value was “not soluble”. Turning to “MARKKKTRRITDIMPIRKADKKIDITKARSGKKLTCYELDAKAREDKKKRKHKGLASGSRHSAVEEKANKLQNEIKDPKIGSKKKIPLVVEFVNKPEKGQVIPVIKQVKKQDPMKELENLENNEILNELLDALDAGKTISKSDQQFVDECLDRISELMEELGIEDEDESEDDLYRTFERMDINQFR”, the “soluble on expression in E. coli” value is recorded as “not soluble”. Then “MAHHHHHHMLPRGEQHVSVAGSDDYMDDAASALLSELQQVVVRVSHQMVEERRRAAQQRKQIRALEAIVAEQDAMLDALRTQCDAAQCEKSRLLKSYQQELRWRGADPVQAARRSRDICGTSGTHVSAAQVDNVVQAEFRRLSTIYESCPFSGFDDVSPVVAAVLRSLATQVLQLRGAARNDEAEASDISKDAQPAPVQPHATSSSLRASARGTSTSSLMPAFNRSAPTDGHGKAGVVDRVTPLAALEKRKKASMFAAATAGPNHSPSETAGRTNGEEAELHRVDLDAGRNGDADAAACMASEASASVASSVCEDAASILSDIRARYGL”, with “not soluble”. As for “MYRISQLAELVGLSRTTLLYYEKLGLIKGERLNNGYRQYSEKDAQRLVLLQNLQAGGLTLKECQACLDAKVNREVLVERLEQLDQEIEQKQNSRQLLAALLGESSLTDWHESLDQLAPEAHIEWLMKQGFDEKQAMRLKWLSKDMNEHERYMQDFDLIFKELERWGPGSESDTLKALQKVPNKSMTLLEIGCGQGIATELFARHTDAMITAVDNEEFALKHLMEKMQQNGLEDKITTVCADMAKMPFETKSFDLIWSEGSAYIMGVQNALKAWKPLLSEDGVLVVSDLVWSTDKPSEGALSFWKKEYPDMVSVSERIKHAQQAGYEVIEHFSLSDAAWEAYYHPLIERLDTLKDKLIDSPVLIDFENEITAFKQRANEFDYEIFILRSR”, the “soluble on expression in E. coli” value was “not soluble”. On to “MGSDKIHHHHHHMPMNIVQVIPSFNVGGGELLAVRLCAEIKNQRPDYKVTLISLYDPIPSIVYDEALASDAQIVTLGKKKGFDPFTPLRMLKTLRAIKPDVIHTHLAGLRYTLLAGVLGNYSLKVHTVHNLATHETFGFLKNVHRVAFKFFSWIPVSLSKEVQDSVRDMYCLESVIVNNGIKTNSEIINKSKEDIRKHYGLPLNSKIIITIGRLCTQKNQLLLIESFNKVCKNAENYTLLIVGEDNLNGSYKNKIDKIISELPDITRENLHLLGPRKDIPELLIASDVFVLSSDWEGVPLTLLEAMGYGTPVVCTSVGGIPDVIEHGFDGLLVSKGDSKSLGNAIIEVLSNNSFASSLAHNARKKFSQLYSIEMTAEKYLQLYNA”, for which the “soluble on expression in E. coli” value is on record as “not soluble”. “MNENQLSKRLATVGDLIPRGSRLADIGSDHAYLPVALMLENKLSFAVAGEVVEGPYQSAKTQVSKSNLTDKIIVRLANGLDAIEPEDQIDVISICGMGGTLIRDILEAGRKKNRLTGKERLVLQPNIGEPTLRRWLMANDYSIIDETIVEENRKLYEIIVAEKTEQSVSYTDQELLFGPVLIKKQGPVFTKKWQRELKQRKTVLAQLAKASGEHIEKQAKLQQDQQLIEEVLANGCER”: the “soluble on expression in E. coli” value is listed as “not soluble”. Regarding “SQPKLALKQLAKQGDECLKKGAWVLIFPEGTRIPVGQMGKFSRGGTALAVNAGLPVLPIAHNAGQYWPKAGWAKYPGTIQVVIGPAMHAEGEGPRAIAELNQRAEAWVSETMAEISPIQQRVSHPEPSVVS”, the “soluble on expression in E. coli” value was “not soluble”. To “MAQTDKPTCIPPELPKMLKEFAKAAIRVQPQDLIQWAADYFEALSRGETPPVRERSERVALCNRAELTPELLKILHSQVAGRLIIRAEELAQMWKVVNLPTDLFNSVMNVGRFTEEIEWLKFLALACSALGVTITKTLKIVCEVLSCDHNGGSPRIPFSTFQFLYTYIAKVDGEISASHVSRMLNYMEQEVIGPDGIITVNDFTQNPRVQLE” belongs “soluble”; to “GPGSMSTWEQAVEEADKAFAKRDCKAVCEIIEKAESDGTCHVQLMWRRARALHTLGDESLDKSEKERYARDAAVAAERAVEEDPTSAEANLWKAICIGILCDYLTTKERMSNVYVIRDHLLRSLELKSDNPDALHGMGMWSLSLLQISWFERSAASLLFGSLPTVSHEECLKYFLASHELRPSIRNCLALGNLFRYQGNWTEAKTWYQKALDIPAETHAHKQKQDEAVQLLNSC”, “soluble”. As for “MGSDKIHHHHHHMDIDRTILVQIQGLLVFESPLHHDERGYFLENWRKKDLLANGVPESFFHHKLQNNVSVSKQGVIRGMHCQGYEKLMTVAYGTFKMIFIDLRIDSPTYKSVDVIDVQPGRAVFVPGGVANGAQSLVNNGILNYLVADYYDPHKNYLGITPLDKDANLSWDSLLKPIISEKDQAAKSFKEVLEIIESSKKKVALIGSTGAVGKVLFDTLRKQSDIDLSCFNRNNIEEALKDFYDMVICTAPSSEKLLTNLSLKNDDAEIEKLVNVLKNIQTGHMILVSTKSVFDSGARYSAIHQKIYNSVIEAHQNSNTIYIMDTLYGKTLKKGFINDLLSRQWTYISNDIVLDKPELENYYQKVNDQLWSLVEPLPNELLSTLEPISDIYPDEMCYQVTAINDLVSHLMANLNRIDGVKLGIDKSEIFTGRQIKNLLKNPDNSTLGRYFKKQEGDFNLENL”, the “soluble on expression in E. coli” value is on record as “not soluble”.

Regarding “MPNVIGVQFQKAGKLEYYTPNDIQVDIDDWVVVESKRGIEIGIVKNPLMDIAEEDVVLPLKNIIRVADDKDIDKFNCNERDAENALILCKDIVREQGLDMRLVNCEYTLDKSKVIFNFTADDRIDFRKLVKILAQHLKTRIELRQIGVRDEAKLLGGIGPCGRSLCCSTFLGDFEPVSIKMAKDQNLSLNPTKISGACGRLMCCLKYENDYYEEVRAQLPDIGEAIETPDGNGKVVALNILDISMQVKLEGHEQPLEYKLEEIETMHLEHHHHHH”, the “soluble on expression in E. coli” value is “not soluble”.

For “MGSDKIHHHHHHVRVNVKSHGPRATFPAAPCLHRNPKVKLRLFPQEPAGLHLLSQMARQIVLATATLAEILGVPATEHNRLVEDMHDHEAKSAELHFALLTHMRTSFVNPLPREDMYALSRYLNEAMEKLDAAAELVALYKLERLPRRAADQLEIISRQAELTVDAMRQLNNLDDLEDYWIEILRLAKRAERTHRVWVADMIKDMKWAQYARNRDIANQLVEVTKDMRRIATQVGSIIVKES”, the “soluble on expression in E. coli” value was “not soluble”. For the sequence “MSLLDRLNDDMKQAMKNKEKEKLSVLRMLKAALQNEAIKLGKSPLSEDEELTVLSRELKQRKDSLQEFENAGRSDLVEKVKTEIEIVQSYMPTPLTEDELRELIEQTIKEVGASSKADMGKVMGAIMPKVKGRADGSLVNKLVQQQLS”, the “soluble on expression in E. coli” value is reported as “soluble”.

Consider “MLPHTGLFLLGKVALQMRIRRRLKQGVIMAKTNNKPETAETAAPSFEDIKAELDAVQAELAAARNDVEMLTTALEKAEDDKKALSAELAELKVQHTQRAADALADSRDVMLVSTGADGKEFWRGGLLFDGGWREVKRAEVGEAVWKAICAEPMLQRKAVE”, for which the “soluble on expression in E. coli” value was “not soluble”.

As to “MAHHHHHHMNFLRRNAANLCKGKVLGKHLNCSVHELTNLNKRKISNITDLGKCGQRYQATHSGSTIGAKRFASSEAQKLSEVVKAEVQHEKSNYEAPDNIKKFLQTSGWKFEEQEGDVNMVLTKNVDGMKIIIDFQLVSPFQAEGENEAQAEMTDFSVTVEKPNKQGGITFYCTTLQNDEKFRYMIGNVKYYKNEEGKNSVSAYNGPEFEDLDDSLQTSLDEWLANLGVDSELCDFIDSCSIDKEQREYMSWLQNISNFIES”, the “soluble on expression in E. coli” value is “not soluble”. For the sequence “MRGSHHHHHHTDPALRANKVAQYYRELVASLSERLRNGERDIDALVEQARERVIKTGELTRTEVDELTRAVRRDLEEFAMSYEESLKEESDSVFMRVIKESLWQELADITDKTQLEWREVFQDLNHHGVYHSGEVVGLGNLVCEKCHFHLPIYTPEVLTLCPKCGHDQFQRRPFEPGLCGR”, the “soluble on expression in E. coli” value is listed as “soluble”. Take “MKKVYIKTFGCQMNEYDSDKMADVLGSAEGMVKTDNPEEADVILFNTCSVREKAQEKVFSDLGRIRPLKEANPDLIIGVGGCVASQEGDAIVKRAPFVDVVFGPQTLHRLPDLIESRKQSGRSQVDISFPEIEKLEHHHHHH”: the “soluble on expression in E. coli” value is given as “not soluble”. As for “MSLAEILMGVGNAGLKESGNPDILVVYLPYPCTASFVFTDNYFKAGSVIYSERIARDKERIRAFVVNSGNANCGTGEEGIKHAEMMAEKVAQILDIPKDEVFVFSTGIIGKYLPIENVLKGIEQACSNLELLDLKRASEVISTTDRFPKYDFAKAGEVETFGFAKGAGMIHPSMATMLAFVFTNANLEYLTLKRIHESVTEKTFNSITVDGCESTNDAFGIISLGEVEADPETVEFELLKVSESLAKQIVADGEGATKIIRVNVRSAITEIKAREIAEAIANSLLVKTAVFGRDPNWGRIAAAAGSTEFPIDPFKLEIYVGGYLLYDGKPHDENLEKAKKHLIEDREVDITVELNEGEYEWVCYSSDIGYDYIKLNAEYTTEGHHHHHH”, the “soluble on expression in E. coli” value is listed as “soluble”. As to “MGSDKIHHHHHHMSQLEKAQAEYAGFIQEFQSAIISTISEQGIPNGSYAPFVIDDAKNIYIYVSGLAVHTKNIEANPLVNVLFVDDEAKTNQIFARRRLSFDCTATLIERESQKWNQVVDQFQERFGQIIEVLRGLADFRIFQLTPKEGRFVIGFGA”, the “soluble on expression in E. coli” value is on record as “soluble”.

Consider “MSQLMNAHDRRNEPAPNAPPEFQLQNRTRPAPTPIEYITLSSDDEIEVIPPPPKRAKMMEEQKPKDLLENPQLPEVPSSSASFVIPQIVVDNEEVPEDPRMKTPSPIQGASVAMPVRARIQESPKVSRDPTPLSRASSVVIPEVPAVSEPEPLPVEVLAISIPTTSPDTAPSTSSSVETVESVTEVVAISSAEASSDAPARSPLKKKVANSVKPVVLPSRKSTRNKKDMNQIKEDEELVSNFNNGIGVISRGTIVPRGLSRTPFHFKKEATDDKAGKVKDMLKIDMQPVFTPAGHSSKDLIKRKARNSLEPSTSDADISFMKNERGKIRTGEKFQATIPDIEPSSTLTEYMDQEDKEEIFWETLDMDKDNLEESKKFHETLRNVYWRAIWRQFQGHIPFETALQHLMKNNLDFAQSLETIDENLKSLPQSFKEPCVAQVKIFDKLLQDKKTTRRQLQEKAMRNYHIAEVQQYHYRFRKFFKYQEKYGVVCNCAEKLCNNLKFEPRYGCTNCKKNVKSSSDHGATEKLCLICQTYQKLTGNVRPARNVEFCDDELEKIYHWSQKEEDLNRTLSREEFEELVREEKNKKWKNNDLSAEETAMLNQKELRIPNRRHRTHLSDQEKQARGEKICAQLQPYVLPHFSKCNCKRMGRSSWRCETEGKSSFSIQERKDYFREVRDCKGDLQQVARNLKVAPEVVRAFINIYGIEYDLEIYFPNKKLPNLIPIVYDIPPSNLPPIIPDGSSNSSSRDGSPYIPPEERSPKKRRSN”, for which the “soluble on expression in E. coli” value is reported as “not soluble”.

As for “GPLGSMKPINIQDQFLNQIRKENTYVTVFLLNGFQLRGQVKGFDNFTVLLESEGKQQLIYKHAISTFAPQKNVQLELE”, the “soluble on expression in E. coli” value is “soluble”.

Consider “MPLTPLDIHNKEFTRGFRGYDEDEVNEFLDQIIKDYEAVLREKKELFDRVTDLDEKLEHFQNIEETLNKSILVAQESAEEVRRNAQKEAQLIVKEAEKNADRIINDALAKSRKIMLEMEELKKQASVYKMRFKMLIEAQLEMLNTDDWDEVTEDSGDERSEEYAE”, for which the “soluble on expression in E. coli” value is recorded as “not soluble”.
